The values that follow come from US20240400689A1 (ANTENGENE BIOLOGICS, published 2024).

Changes are numbered by the printed parent chain.

First the molecules themselves.
T1: mouse CD276 protein (mouse, UniProt Q8VE98 29-316)
T1 construct: whole, on cells; also called mCD276; CHO-S-mCD276
T1 sequence (looked up): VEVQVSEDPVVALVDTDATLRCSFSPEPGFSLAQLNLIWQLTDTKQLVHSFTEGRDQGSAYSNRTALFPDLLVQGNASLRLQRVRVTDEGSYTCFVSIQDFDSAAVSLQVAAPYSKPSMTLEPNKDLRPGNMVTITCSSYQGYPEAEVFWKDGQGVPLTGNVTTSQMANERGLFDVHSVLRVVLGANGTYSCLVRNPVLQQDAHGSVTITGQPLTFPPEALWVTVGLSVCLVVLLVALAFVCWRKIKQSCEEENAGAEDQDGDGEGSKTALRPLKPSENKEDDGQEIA

T2: human CD276 protein (human, UniProt Q5ZPR3 29-534)
T2 construct: whole, on cells; for SKOV3 and the other cancer lines the protein is the cells' own; also called B7-H3; B7H3
T2 sequence (looked up): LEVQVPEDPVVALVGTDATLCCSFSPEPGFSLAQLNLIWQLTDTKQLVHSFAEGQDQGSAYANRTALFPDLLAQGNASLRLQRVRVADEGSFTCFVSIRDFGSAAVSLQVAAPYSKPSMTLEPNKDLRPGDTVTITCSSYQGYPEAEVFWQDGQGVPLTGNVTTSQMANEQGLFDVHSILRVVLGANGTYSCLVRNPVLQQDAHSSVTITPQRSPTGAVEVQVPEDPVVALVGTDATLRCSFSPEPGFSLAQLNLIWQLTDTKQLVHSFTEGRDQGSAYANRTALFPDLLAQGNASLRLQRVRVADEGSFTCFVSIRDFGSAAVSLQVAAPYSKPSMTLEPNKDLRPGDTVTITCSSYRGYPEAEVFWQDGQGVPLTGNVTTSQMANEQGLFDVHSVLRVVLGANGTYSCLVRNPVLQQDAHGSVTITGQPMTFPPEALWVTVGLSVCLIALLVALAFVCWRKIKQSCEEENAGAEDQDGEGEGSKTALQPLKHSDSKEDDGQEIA

B1: 20-C5-D7-D3 (antibody, V domains shown)
VH: EVQLVESGGDLVKPGGSLKLSCAASGFTFRSYGMSWVRQTPDKRLEWVATISGGGNYTYYPDSVKGRFTISRDNAKNTLYLQMSSLKSEDTAMYYCARHEGLPLDYWGQGTTLTVSS
VL: DIQMTQSPASLSASVGETVTITCRASENIYSYLAWYQQKQGKSPQLLVYNAKTLAEGVPSRFSGSGSGTQFSLKINSLQPEDFGNFYCQHHYGTPTWTFGGGTKLEIK
notes: mouse monoclonal antibody (hybridoma)
B2: 25-D3-G4-C6 (antibody, V domains shown)
VH: EIQLQQTGPELVKPGASVKISCKASGYSFTDYIILWVKQSHGMSLEWIGNINPYYNSTYYNLKFKGKATLTVDKSSSTAYMQLDSLTSEDSAVYYCARDSFDWYFGVWGAGTTVTVSS
VL: DVVMTQTPLSLPVSLGDQASISCRSSQSLVHSNGNTYLHWYLQKPGQSPKLLIYKVSNRFSGVPDRFSGSGSGTDFTLKISRVETEDLGIYFCSQSTHVPPLTFGAGTKLELK
notes: as for B1
B3: 7-E1-F8-F6 (antibody, V domains shown)
VH: QVQLQQSGPELVKPGASVQMSCKASGYTFTDYVISWVNQRTGQGLEWIGEIYPRSGNTYYNEKFKGKATLTADKSSNTAYMQLSSLTSEDSAVYFCARFDIAYSFDYWGQGTTLTVSS
VL: DVVMTQTPLSLPVSLGDQASISCRSTQSLVHSNGVTYLHWYLQKPGQSPKLLIYKVSNRFSGVPDRFSGSGSGTDFTLKISRVEAEDLGVYFCSQGTHVPWTFGGGTKLEIK
notes: as for B1
B4: 9-G2-H6-E4 (antibody, V domains shown)
VH: EVQLQQSGPDLVKPGASVKISCKASGYSFTGYFMNWVKQRHGKSLEWIGYINPNNGDTIYNQKFKGKATLTVDKSSSTAHMELLSLTSEDSAVYYCGRGGLPFGALDYWGQGTSVTVSS
VL: DIVMSQSPSSLAVSVGEKVNMSCKSSQSLLYSRNQKNYLAWNQQKPGQSPKLLIYWASARESGVPDRFTGSGSGTDFTLTISSVKAEDLAAYYCQQYHSYPYTFGGGTKLELK
notes: as for B1
B5: 13-A8-C4-G1 (antibody, V domains shown)
VH: QVQLQQPGAELVKPGASMKLSCKASGYIFTSNWMHWVKQRPGQGLEWIGMIHPNSGTTSYNEKFKNKAKLTVDKSSSTAYVQLSSLTSEDSAVYYCAGPTTTRRFYPMDYWGQGTSVTVSS
VL: QAVVTQESALTTSPGETVTLTCRSSTGAVTTSNYANWVQEKPDHLFTGLIGGTNNRAPGVPARFSGSLIGDKAALTITGAQTEDEAIYFCALWYSNHFIFGSGTKVTVL
notes: as for B1
B6: 15-C8-B5-G7 (antibody, V domains shown)
VH: QVQLQQPGAELVKPGASVKLSCKASDYTFTSHWMHWVKQRPGQGLEWIGMIHPNSGTTHYNENFKNKATLTVDNSSSTAYMQLSSLTSEDSAVYYCAWGSSNSYFYAMAYWGQGTSVTVSS
VL: B5 VL with D43A, Y94F, F98L, I99V, S102G, V106L
notes: as for B1
B7: 6-F3-G2-G1 (antibody, V domains shown)
VH: QVQLQQPGAELVKPGASVKLSCKASDYTFTNYWMHWVKQRPGQGLEWIGMIHPNSGTTSYNEKFKNKATLTVDTSSATTYMHLSSLTSEDSAVYYCASHYGNSYSAMDYWGQGTSVTVSS
VL: B5 VL with E16G, T19I, N54S, A62V, E85D, I87M, N96T, F98Y, I99V, S102G
notes: as for B1
B8: 28-G2-E6-B10 (antibody, V domains shown)
VH: QVQLQQPGAELVKPGASVKLSCKASGYTFTSYWMHWVKQRPGQGLEWIGMIHPNSDTTDYNEKFKTKATLTVDKSSSTAYMQLSSLTSEDSAVFYCARGGLGPHYFVYWGQGTTLTVSS
VL: QAVVTQESALTTSPGGTVILTCRSSTGAVTTSNYASWVQEKPDHLFTGLIGGTSNRAPGVPVRFSGSLIGDKAALTITGAQTEDDAMYFCALWYSPHYVFGGGTKVTVL
notes: as for B1
B9: 9-E8-F9-C10 (antibody, V domains shown)
VH: EVQLQQSGAELVRPGTSVKISCKASGYAFSDYWLSWVKQRPGHGLEWIGDICPGSGNIYYNERFKDKVILTADRSSSTAYLQFSSLTSEDSVVYFCTRLITRVIDYWGQGTSVTVST
VL: ENVLTQSPAIMSASPGEKVTMTCSASSSVNYMHWYQQKSSTSPKLWIYDTSKLSSGVPGRFSGSGSGNSYSLTISSMEAEDVATYYCFQGSGYPLTFGAGTKLELK
notes: as for B1
B10: 3-G7-D8-D3 (antibody, V domains shown)
VH: QVQLQQSGAELARPGTSVKLSCKASGYTFTTYWIQWVKQRPGQGLEWIGAIYPGDGDTRYTQKFKGKATLTADKSSSTAYMQLSTLASEDSAVYYCARPYDGYYIDYPMDSWGQGTSVTVSS
VL: QIVLTQSPAIMSASPGEKVTMTCSASSRINYMHWYQQKPGTSPIIWIYDTSKLASGVPARFSGSGSGTSYSLTISSMEAEDAATYYCHQRSSYPFTFGSGTKLEIK
notes: as for B1
B11: 4-D5-B9-B11 (antibody, V domains shown)
VH: EIGGLVKPGGSLKFSCAASGFTFSSYAMSWVRQTPEKRLEWVATISGGGIYYPDSVKGRFTISRDNAKNTLYLQMSSLRSEDTAMYYCARQGSKGWDAMDYWGQGTSVTVSS
VL: QIVLTQSPAIMSASPGEKVTMTCRASSSVSFMHWYQQKSGTSPKRWIYETSKLASGVPDRFSGSGSGTSYSLTISSMEAEDAATYYCQQWSSNPLTFGAGTKLELK
notes: as for B1
B12: 27-F8-E10-E11 (antibody, V domains shown)
VH: EVQLQQSGPELVKPGASVKISCKTSGYTFTEYAMHWVKQSHGKILEWIGGINPNIGGTTYNQKFKDKATLTVDKSSSTASMELRSLTSEDSAVYYCARFLVPSTEGFTYWGQGTLVTVSA
VL: B11 VL with R24S, F31Y, E49D, K52R, L53V, D59A
notes: as for B1
B13: 3-C2-C3-E7 (antibody, V domains shown)
VH: EVQLQQSGPELVKPGASVKISCKTSGYTFTENTMHWVKQSHGKRLEWIGGINPNTGGTTYNQKFKGKATLTVDKSSSTAYMELRSLTSEDSAVYYCARRGTNWEHWYFDVWGAGTTVTVSS
VL: B11 VL with R24S, F31Y, E49D, D59A
notes: as for B1
B14: 6-H11-G5-D8 (antibody, V domains shown)
VH: EVQLQESGPELVKPGTSVKLSCKASGYTFTSYDINWVRQRPEQGLEWIGWIFPGNGDTYYNEKFKGKATLTSDKSSSTAYMQLSRLTSEDSAVYFCARDLRLGTFDYWGQGTTLTVSS
VL: B11 VL with A9E, R24S, F31Y, M32I, E49D, D59A, S75R, W90G, L95R, A99G
notes: as for B1
B15: 14-E7-G9-D4 (antibody, V domains shown)
VH: EVQLQQSGPELVKPGASVKMSCKASGYTFTNYIMHWVKQKPGQGLEWIGYINPYNDGIKYNEKFKGKATLTSDKSSSTAYMELSSLTSEDSAVYYCTRWGNYVFYYTMDYWGQGTSVTVSS
VL: QIVLSQSPAILSASPGEKVTMTCRASSSVSYMHWYQQKPGSSPKPWIYATSNLASGVPARFSGSGSGTSYSLTISRMEAEDAATYYCQQWSGNPPLTFGAGTKLELK
notes: as for B1

One experiment deals with T1, mouse CD276 protein. Nature of the experiment: FACS on CHO-S-mCD276 cells. On the procedure:
(§1) Screening & Expansion—The subcloning plates were screened by protein or cell-based Elisa, and the subclones with good binding ability were expanded to 24-wells for confirmation tests. The specificity and cross-reactivity of these subclones were confirmed with FACS analysis. Briefly, parental CHO-S cells, CHO-S-hCD276, CHO-S cell line stably over-expressing Macaca fascicularis CD276, CHO-K1 S, cell line stably over-expressing mouse CD276 were incubated with antibodies produced by each subclone respectively. Fluorescent dye-conjugated secondary antibody was used to detect the binding of the primary antibody with the cells. Median fluorescence intensity was measured by FACS analysis.
As to B1, the “FACS MFI” value was determined as 1340.

Turning to B2, the “FACS MFI” value was found to be 1370.

For B3, the “FACS MFI” value is 1310.

On to B4, for which the “FACS MFI” value stood at 27600.

For B5, the “FACS MFI” value came to 6200.

For the molecule B6, the “FACS MFI” value came out at 5730.

On to B7, for which the “FACS MFI” value was 6980.

Regarding B8, the “FACS MFI” value is 2080.

As for B9, the “FACS MFI” value was 1950.

B10: the “FACS MFI” value turned out to be 1290.

As to B11, the “FACS MFI” value was 2100.

On to B12, for which the “FACS MFI” value was 1350.

In the case of B13, the “FACS MFI” value came out at 2770.

Take B14: the “FACS MFI” value is 1360.

Take B15: the “FACS MFI” value was 1300.

For another experiment, the target named is T3, Macaca fascicularis CD276 (Macaca fascicularis).
T3 construct: whole, on cells; also called cynomolgus monkey CD276; cynoCD276
The experiment in a line: FACS on CHO-S-cynoCD276 cells. On the procedure:
as §1
As for B1, the “FACS MFI” value is 13200.

As to B2, the “FACS MFI” value was 5390.

B3: the “FACS MFI” value is 5590.

For B4, the “FACS MFI” value was 5400.

With B5, the “FACS MFI” value is 95800.

As to B6, the “FACS MFI” value turned out to be 43000.

For the molecule B7, the “FACS MFI” value was found to be 114000.

Turning to B8, the “FACS MFI” value was 40800.

On to B9, for which the “FACS MFI” value stood at 5700.

For B10, the “FACS MFI” value is 6420.

B11: the “FACS MFI” value was 148000.

For the molecule B12, the “FACS MFI” value was 80500.

As to B13, the “FACS MFI” value was determined as 2110.

For the molecule B14, the “FACS MFI” value came out at 30400.

As to B15, the “FACS MFI” value stood at 61800.

For another experiment, the target named is T2, human CD276 protein. The experiment in a line: FACS on CHO-S-hCD276 cells. On the procedure:
as §1
For the molecule B1, the “FACS MFI” value worked out at 77000.

Regarding B2, the “FACS MFI” value is 5940.

As for B3, the “FACS MFI” value was determined as 6990.

Take B4: the “FACS MFI” value was determined as 49600.

In the case of B5, the “FACS MFI” value turned out to be 54100.

For B6, the “FACS MFI” value stood at 36600.

Regarding B7, the “FACS MFI” value is 37400.

B8: the “FACS MFI” value was determined as 56300.

Turning to B9, the “FACS MFI” value worked out at 7610.

B10: the “FACS MFI” value was found to be 82400.

Turning to B11, the “FACS MFI” value amounted to 145000.

Turning to B12, the “FACS MFI” value was determined as 16000.

With B13, the “FACS MFI” value amounted to 38800.

As for B14, the “FACS MFI” value amounted to 113000.

As for B15, the “FACS MFI” value is 78100.
